Measured values reported in US20240108693A1, “METHOD OF TREATING LOWER URINARY TRACT SYMPTOMS” (Versameb AG, priority 2021, published 2024).
“Also recorded” adds a separate entry of the source.

Tests used:
[1] = tested on: vaginal distension (VD) animal model of stress urinary incontinence (SUI); test: Leak point pressure (LPP) in rat vaginal distension model for stress urinary incontinence; assay type: in vivo; conditions: for area under curve (AUC) of urinary bladder leak point pressure: Day 0-14 after VD; for time course of leak point pressure (LPP): Day 4, 9 and 14 after VD; for leak point pressure (LPP) of urinary bladder: Cpd.1B single urethral injection Day 0, Duloxetine 20 mg/kg oral daily
Excerpt: The urethra is a conduit for elimination of urine from the bladder. It is composed of an epithelium lining the lumen, lamina propria with a prominent vascular plexus, smooth muscle and an outer layer of striated muscle (called external urethral sphincter). The urethra functions in coordination with the bladder: it remains closed during bladder filling to maintain continence and it relaxes during voiding to allow flow of urine. These processes are controlled by parasympathetic, sympathetic and somatic innervation. Parasympathetic nerves release nitric oxide to relax the urethra during bladder voiding, while sympathetic nerves release noradrenaline to contract the urethra during bladder filling. The striated muscle receives somatic innervation that contracts the muscle ensuring continence during bladder filling. Using the model of stress urinary incontinence (SUI) in female rats the hypothesis was tested if Cpd.1B can be effective against SUI in the vaginal distension (VD) model by facilitating muscle growth and regeneration. […] Vaginal Distension (VD) was applied for 4 hours to female Sprague-Dawley Female rats under isoflurane anesthesia. 1 hour after the end of VD, the abdomen was surgically opened to access the urethra and rats received two injections of vehicle or Cpd.1B (10 μg each) through a Hamilton syringe at approximately 5 and 7 o'clock positions. Sham treated animals (catheter without inflation) were treated with vehicle as controls. […] Rats were then put in a supine position on a heated pad at 37° C. The bladder was emptied manually and filled with room temperature saline through the bladder catheter at 3.0 ml/h. After bladder filling with 0.4-0.5 ml, the abdomen was slowly depressed manually to increase abdominal pressure until fluid leakage was observed from the urethral orifice.

[2] = tested on: vaginal distension (VD) animal model of stress urinary incontinence (SUI); test: Histological assessment of urethral integrity after vaginal distension (Masson trichrome scores); assay type: in vivo, rat; conditions: mid-urethra cross-sections, Day 9 and 14 after VD
Method: Vaginal Distension (VD) was applied for 4 hours to female Sprague-Dawley Female rats under isoflurane anesthesia. 1 hour after the end of VD, the abdomen was surgically opened to access the urethra and rats received two injections of vehicle or Cpd.1B (10 μg each) through a Hamilton syringe at approximately 5 and 7 o'clock positions. Sham treated animals (catheter without inflation) were treated with vehicle as controls. […] From 2 animals of each group, the urethra-vaginal tissues were harvested (cross-section of the mid-urethra and anterior vagina) on Day 9 and 14, and the tissues immersed in neutral buffered formalin containing 4% formaldehyde for a period of 4 h, then embedded in paraffin. Sections of 5 μm were stained with the standard procedures of Hemalun-Eosin (HE), Masson Trichrome (MT) and Picrosirius red. Based on morphology and tissue integrity, histology scores were allocated to the outer circular muscle layer (OCML), the inner longitudinal muscle layer (ILML) and the endomysial tissue of mid-urethral sections, and Day 9 and 14 sampled. The following histological scores were applied to the different layers and averaged per group: • Outer Circular Muscle Layer (OCML, skeletal muscle): • 0=circumferential regular • 1=circumferential focally thinned • 2=discontinued • 3=mostly absent • Inner Longitudinal Muscle Layer (ILML, smooth muscle): • 0=mid-sized to large fascicles • 1=small fascicles) • Endomysial tissue: • 0=thin, dense • 1=thickening by loose connective tissue • 2=focal replacement of muscles by connective tissue • 3=replacement of muscles by connective tissue

[3] = rat, in vivo
Method: (§1) For assessment of Cpd.1A exposure in rat tibialis anterior (TA) muscle, two injections of each 15 μl Cpd.1A at different doses (1, 3 or 10 μg per injection) into TA muscles of male or female rats were performed in adult rats. After 6, 24, 48 and 72 hours, TA muscles were harvested, divided into two parts to analyse RNA and protein content, and Cpd.1A RNA content was analysed by qPCR and IGF1 protein levels by human-specific IGF1 ELISA (Cat. #E20, Mediagnost, Reutlingen, Germany). Total RNA was extracted from flash frozen TA muscle tissues (ca. 10 mg) using Norgen's Animal Tissue RNA Purification Kit (Cat. #25700). A TaqMan assay was developed and validated to quantify Cpd.1A and Cpd.1B RNA from muscle tissues through absolute quantification. Both forward primer (5′ […] 3′; SEQ ID NO: 14) and reverse primer (5′ […] 3′; SEQ ID NO: 15) along with labelled probe with quencher (5′ FAM-CTGCTGCCGTAGCCTG-MGB-Q500 3′; SEQ ID NO: 16) were designed to be specifically bind to Cpd.1A and Cpd.1B RNA and ordered (www.microsynth.com). […] The Cpd.1A RNA copy numbers in TA muscles were assessed by calculating unknown values from standard curves. From qPCR data, half-life was calculated using a monoexponential decay function. […] After 24 and 72 hours, tissues were harvested, and Cpd.1B content was analysed by qPCR as specified above where standard curve template generated from Cpd.1B mRNA.

IGF1 protein = IGF1 protein expression in rat TA muscle after i.m. injection of Cpd.1A (human-specific IGF1 ELISA); assay type: in vivo; conditions: 3 and 10 μg doses i.m., after a delay of several hours
Method: as §1

For `CNCC[C@H](Oc1cccc2ccccc12)c1cccs1` [Duloxetine, reference compound], the “area under curve (AUC) of urinary bladder leak point pressure” value [1] was “clear increase in AUC; also recorded: beneficial efficacy”, the “time course of leak point pressure (LPP)” value [1] was “initial increase in LPP that declined thereafter to normal levels on Day 14” and the “leak point pressure (LPP) of urinary bladder” value ([1]; Day 4 after VD, vs. VD vehicle) was “initial increase of LPP; also recorded: significant increase of LPP; also recorded: increased LPP”. The “leak point pressure (LPP) of urinary bladder” value ([1]; Day 14 after VD) was “control levels”, the “endomysial tissue histology score” value [2] was “further worsened this pathology” and the “inner longitudinal muscle layer (ILML) histology score” value [2] was “further increased the ILML score”. The “outer circular muscle layer (OCML) histology score” value [2] was “further deteriorated the OCML pathology”, the “endomysial tissue histology score” value ([2]; listed as duloxetine) was “worsens the endomysium score” and the “inner longitudinal muscle layer (ILML) histology score” value ([2]; listed as duloxetine) was “worsens the ILML score”. For the same molecule, the “outer circular muscle layer (OCML) histology score” value ([2]; listed as duloxetine) was “tends to worsen the OCML disorganization”.

B1: Cpd.1A: mRNA encoding human BDNF signal peptide, IGF1 pro-domain and mature human IGF1 (SEQ ID NO: 8), from pMA-T vector, N1-methylpseudouridine modified (nucleic acid)
DNA: AUGACCAUCCUGUUUCUGACAAUGGUCAUCAGCUACUUCGGCUGCAUGAAGGCCGUGAAGAUGCACACCAUGAGCAGCAGCCACCUGUUCUAUCUGGCCCUGUGCCUGCUGACCUUUACCAGCUCUGCUACCGCCGGACCUGAGACACUUUGUGGCGCUGAACUGGUGGACGCCCUGCAGUUUGUGUGUGGCGACAGAGGCUUCUACUUCAACAAGCCCACAGGCUACGGCAGCAGCUCUAGAAGGGCUCCUCAGACCGGAAUCGUGGACGAGUGCUGCUUCAGAAGCUGCGACCUGCGGCGGCUGGAAAUGUAUUGUGCCCCUCUGAAGCCUGCCAAGAGCGCCUAA
modifications: mRNA, N1-methylpseudouridine modified; misc_feature 1..348 RNA sequence of Cpd.1A and Cpd.1B; misc_feature 1..348 m1f (uridine is 1-methylpseudouridine)
In the case of B1, the “duration of relevant Cpd.1A exposure in TA muscle” value [3] is reported as “up to 72 hours”, the “half-life of Cpd.1A in TA muscle” value ([3]; im, 3 ug) is reported as 21 h and the “duration of IGF1 protein production at relevant concentrations in TA muscle” value (IGF1 protein) is reported as “up to 72 hours”.

B2: Cpd.1B: mRNA encoding human BDNF signal peptide, pro-IGF1 and mature IGF1 without E-peptide, 120 bp poly-A tail, from pMK vector (nucleic acid)
chain: AUGACCAUCCUGUUUCUGACAAUGGUCAUCAGCUACUUCGGCUGCAUGAAGGCCGUGAAGAUGCACACCAUGAGCAGCAGCCACCUGUUCUAUCUGGCCCUGUGCCUGCUGACCUUUACCAGCUCUGCUACCGCCGGACCUGAGACACUUUGUGGCGCUGAACUGGUGGACGCCCUGCAGUUUGUGUGUGGCGACAGAGGCUUCUACUUCAACAAGCCCACAGGCUACGGCAGCAGCUCUAGAAGGGCUCCUCAGACCGGAAUCGUGGACGAGUGCUGCUUCAGAAGCUGCGACCUGCGGCGGCUGGAAAUGUAUUGUGCCCCUCUGAAGCCUGCCAAGAGCGCCUAA
modifications: 1-methylpseudouridine; poly-A tail; misc_feature 1..348 RNA sequence of Cpd.1A and Cpd.1B; misc_feature 1..348 m1f (uridine is 1-methylpseudouridine)
notes: mRNA encoding human BDNF signal peptide, pro-IGF1 and mature IGF1 without E-peptide, 120 bp poly-A tail, from pMK vector
With B2 the “area under curve (AUC) of urinary bladder leak point pressure” value [1] was “clear increase in AUC; also recorded: beneficial efficacy”, the “time course of leak point pressure (LPP)” value [1] was “increase of LPP over time that returned to normal levels by Day 14” and the “leak point pressure (LPP) of urinary bladder” value ([1]; Day 4 after VD, vs. VD vehicle) was “significant increase in LPP; also recorded: significant increase of LPP; also recorded: increased LPP”. The “leak point pressure (LPP) of urinary bladder” value ([1]; Day 9 after VD) was “further increased; also recorded: did not reach significance; also recorded: still showed increased LPP”, the “leak point pressure (LPP) of urinary bladder” value ([1]; Day 14 after VD) was “full recovery to healthy LPP levels” and the “endomysial tissue histology score” value [2] was “completely prevented this impairment; also recorded: reverted”. For the same molecule, the “inner longitudinal muscle layer (ILML) histology score” value [2] was “preventing this disruption; also recorded: reverted” and the “outer circular muscle layer (OCML) histology score” value [2] was “prevented this trend; also recorded: reverted”.
